Target: 2019-nCoV spike (S) glycoprotein, prefusion-stabilized ectodomain (residues 1-1208, two stabilizing proline mutations) (2019-nCoV)
Experiment: cryo-EM structure

Substance: 2019-nCoV spike (S) glycoprotein, prefusion-stabilized ectodomain (residues 1-1208, two stabilizing proline mutations) (domain or fragment)
- stoichiometry N: 3

Reference: article PMC7164637
